# Source: CN110760489A, “一种川芎咖啡酸-o-甲基转移酶的突变体及其用途” (Southwest Jiaotong University, priority 2019, dated 2020)
# B1: Ligusticum chuanxiong caffeic acid O-methyltransferase LcCOMT, wild type [野生型LcCOMT; 川芎咖啡酸-O-甲基转移酶] (Conioselinum anthriscoides) (protein)
# chain: MNTELIPPTFLEDEEEEACMFAMQLSSASVLPMVLKSAIELNLLESIAKAGPGVYVSPSHLAAGLPSSQPDTPVMLDRILRLLASYSVLNCQLRDLPQGRVERLYGLAPVCKFLTKNSDGVSMAPLLLMNQDKILMESWYHLKDAVLDGGIPFNKAYGMTAFEYHGKDPRFNKVFNQGMSNHSTITMKKILQTYDGFGGLKTVVDVGGGTGATLNMIISKYPNLKGINFDLPHVVEDAPSYPGVEHVGGDMFVSVPKGDAIFMKWICHDWSDAHCLTFLKNCYKALPKDGKVILAECILPEAPDSKLTTKNVIHIDVIMLAHNPGGKERTEKDFEALGKEAGFKSFNKACCAYNTWVIEYYK
# B2: Ligusticum chuanxiong caffeic acid O-methyltransferase LcCOMT variant LcCOMT-I318T (Ile318 to Thr), SEQ ID No.2 [LcCOMT-I318T突变体; 川芎咖啡酸-O-甲基转移酶] (Conioselinum … (protein)
# chain: MNTELIPPTFLEDEEEEACMFAMQLSSASVLPMVLKSAIELNLLESIAKAGPGVYVSPSHLAAGLPSSQPDTPVMLDRILRLLASYSVLNCQLRDLPQGRVERLYGLAPVCKFLTKNSDGVSMAPLLLMNQDKILMESWYHLKDAVLDGGIPFNKAYGMTAFEYHGKDPRFNKVFNQGMSNHSTITMKKILQTYDGFGGLKTVVDVGGGTGATLNMIISKYPNLKGINFDLPHVVEDAPSYPGVEHVGGDMFVSVPKGDAIFMKWICHDWSDAHCLTFLKNCYKALPKDGKVILAECILPEAPDSKLTTKNVIHIDVTMLAHNPGGKERTEKDFEALGKEAGFKSFNKACCAYNTWVIEYYK
# Columns and labels:
# [1] = substrate: COC(=O)/C=C/c1ccc(O)c(O)c1; experiment: 动力学参数值测定 (kinetic parameters, double-reciprocal method), wild-type LcCOMT; type: biochemical, Ligusticum chuanxiong; settings: other: substrate 咖啡酸甲酯 0.0715-0.25 mM, S-adenosylmethionine 1 mM, pH 7.0, 37℃, HPLC, double-reciprocal plot, 37.0 °C
# [2] = substrate: COC(=O)/C=C/c1ccc(O)c(O)c1; experiment: 动力学参数值测定 (kinetic parameters, double-reciprocal method), LcCOMT-I318T mutant; type: biochemical, Ligusticum chuanxiong; settings: other: substrate 咖啡酸甲酯 0.0715-0.25 mM, S-adenosylmethionine 1 mM, pH 7.0, 37℃, HPLC, double-reciprocal plot, 37.0 °C
Protein,Km [1] [µM],Vmax [1],kcat [1] [S-1],Km [2] [µM]
B1,26.4,2.643*10^-8 M/S,0.113,
B2,,,,19.7
